Experimental data taken from publication PMC5381515 (Structure (London, England : 1993), 2017).

B1: full-length human βB2-crystallin (natural protein, UniProt P43320 1-205, looked up)
chain: MASDHQTQAGKPQSLNPKIIIFEQENFQGHSHELNGPCPNLKETGVEKAGSVLVQAGPWVGYEQANCKGEQFVFEKGEYPRWDSWTSSRRTDSLSSLRPIKVDSQEHKIILYENPNFTGKKMEIIDDDVPSFHAHGYQEKVSSVRVQSGTWVGYQYPGYRGLQYLLEKGDYKDSSDFGAPHPQVQSVRRIRDMQWHQRGAFHPSN

Key:
[1] = biological target: truncated human βB2-crystallin (14–194) (human); experiment: SEC-MALS
SEC-MALS = biological target: the molecule itself; experiment: SEC-MALS

Row | Molecule | stoichiometry N [1] | stoichiometry N (SEC-MALS)
1 | truncated human βB2-crystallin (14–194) (domain or fragment) | 2 | 
2 | B1 |  | 2
